Several values for one entry are separate records, joined by “and”; a condition that tells them apart may be missing. Identical values can stand only once.
Legend:
[1] = biological target: luteinizing hormone-releasing hormone (LHRH) receptor (human) (UniProt P30968); test: cell-based or functional assay
[2] = biological target: T1, luteinizing hormone-releasing hormone (LHRH) receptor (human, UniProt P30968 1-328); test: cell-based or functional assay
T1 sequence (looked up): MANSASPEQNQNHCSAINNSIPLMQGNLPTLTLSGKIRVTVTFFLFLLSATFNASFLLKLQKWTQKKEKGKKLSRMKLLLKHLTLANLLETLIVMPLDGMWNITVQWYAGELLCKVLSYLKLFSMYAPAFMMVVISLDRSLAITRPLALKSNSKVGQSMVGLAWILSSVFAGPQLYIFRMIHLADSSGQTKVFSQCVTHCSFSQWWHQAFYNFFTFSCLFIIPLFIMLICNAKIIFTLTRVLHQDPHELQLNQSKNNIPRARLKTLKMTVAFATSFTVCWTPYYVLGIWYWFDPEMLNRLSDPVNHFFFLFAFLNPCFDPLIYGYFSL

Molecule	IC50, cytotoxicity in TM4 cells (no LHRH receptors; receptor-negative control) [1] [µM]	IC50, cytotoxicity (MTT) in MCF-7 cells [2]	IC50, cytotoxicity (MTT) in MDA-MB-435S cells, 0.5 hour incubation [2] [µM]	IC50, cytotoxicity (MTT) in MDA-MB-435S cells, 1 hour incubation [2] [µM]	IC50, cytotoxicity (MTT) in OVCAR-3 cells, increasing incubation time (1st of 7 values) [2] [µM]	IC50, cytotoxicity (MTT) in OVCAR-3 cells, increasing incubation time (2nd of 7 values) [2] [µM]	IC50, cytotoxicity (MTT) in OVCAR-3 cells, increasing incubation time (3rd of 7 values) [2] [µM]	IC50, cytotoxicity (MTT) in OVCAR-3 cells, increasing incubation time (4th of 7 values) [2] [µM]	IC50, cytotoxicity (MTT) in OVCAR-3 cells, increasing incubation time (5th of 7 values) [2] [µM]	IC50, cytotoxicity (MTT) in OVCAR-3 cells, increasing incubation time (6th of 7 values) [2] [µM]	IC50, cytotoxicity (MTT) in OVCAR-3 cells, increasing incubation time (7th of 7 values) [2] [µM]	IC50, cytotoxicity (MTT) in SKOV-3 cells, 24 hours incubation (cells without functional LHRH receptors; receptor-negative control) [2] [µM]
LHRH-Phor21 (peptide)	10.9											
KFAKFAKKFAKFAKKFAKQHWSYGLRPG [Phor18-LHRH (338613)]		3.4 µM and 1.8 µM	1.2	0.6	6.7	5.6	5.3	1.6	1.5	0.5	0.5	11.5

Source: patent US8546535 (ESPERANCE PHARMACEUTICALS, dated 2013)
